Values of other authors in US6204360A, “Retro-inverso thymosin alpha 1 hybrids” (USA Universe Bioengineering, Inc., priority 1999, dated 2001).
No end group written: not given here.

Conditions: Rost, Int. J. Clin. Pharmacol. Ther. 37:51, 1999

In the case of “thymosin alpha 1 (SDAAVDTSSEITTKDLKEKKEVVEEAEN; ends and bridges not checked; UniProt P06454 2-29, looked up) [TM-alpha1, 28 amino acid acidic peptide purified from thymosin fraction V; immunomodulator]”, the half-life in vivo is listed as “short half-life in vivo”.
